Data as given in patent US20180244785A1 (MERRIMACK PHARMACEUTICALS, published 2018).

T1: recombinant human FGFR1c Fc fusion (human, UniProt P11362 141-376)
T1 construct: also called FGFR1IIIc; not shown: Fc part of the FGFR-Fc fusion
T1 sequence: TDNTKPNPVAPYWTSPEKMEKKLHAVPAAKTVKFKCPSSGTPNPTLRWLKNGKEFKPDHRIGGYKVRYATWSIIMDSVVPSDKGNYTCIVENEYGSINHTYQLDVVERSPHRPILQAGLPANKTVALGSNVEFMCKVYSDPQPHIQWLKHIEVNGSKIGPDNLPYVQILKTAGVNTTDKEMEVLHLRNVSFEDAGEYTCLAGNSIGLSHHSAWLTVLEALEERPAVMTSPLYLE

T2: recombinant human FGFR3c Fc fusion (human, UniProt P22607 141-372)
T2 construct: also called FGFR3IIIc; not shown: Fc part of the FGFR-Fc fusion
T2 sequence: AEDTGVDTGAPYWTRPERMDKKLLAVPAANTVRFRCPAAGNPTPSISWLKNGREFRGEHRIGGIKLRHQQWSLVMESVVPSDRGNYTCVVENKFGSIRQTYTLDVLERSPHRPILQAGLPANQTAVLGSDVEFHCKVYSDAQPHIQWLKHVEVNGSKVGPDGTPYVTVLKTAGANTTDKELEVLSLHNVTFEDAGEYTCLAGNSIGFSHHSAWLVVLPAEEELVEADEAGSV

T3: recombinant human FGFR4 Fc fusion (human, UniProt P22455 144-369)
T3 construct: 19 used; also called FGFR4c; not shown: Fc part of the FGFR-Fc fusion
T3 sequence: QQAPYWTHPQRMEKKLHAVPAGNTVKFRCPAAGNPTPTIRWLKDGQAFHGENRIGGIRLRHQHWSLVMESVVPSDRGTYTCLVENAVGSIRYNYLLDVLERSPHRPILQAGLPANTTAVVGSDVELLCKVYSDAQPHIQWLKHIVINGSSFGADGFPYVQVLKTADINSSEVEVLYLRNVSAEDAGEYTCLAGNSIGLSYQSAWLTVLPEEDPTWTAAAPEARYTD

T4: soluble FGFR3c receptor protein (human, UniProt P22607 141-372)
T4 sequence: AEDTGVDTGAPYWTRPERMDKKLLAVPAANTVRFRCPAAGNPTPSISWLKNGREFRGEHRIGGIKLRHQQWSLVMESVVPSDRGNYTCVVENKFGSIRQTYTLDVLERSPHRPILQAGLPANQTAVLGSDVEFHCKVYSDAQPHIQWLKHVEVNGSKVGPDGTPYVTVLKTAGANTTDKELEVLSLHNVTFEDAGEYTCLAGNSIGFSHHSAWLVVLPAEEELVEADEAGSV

T5: soluble FGFR4 receptor protein (human, UniProt P22455 144-369)
T5 sequence: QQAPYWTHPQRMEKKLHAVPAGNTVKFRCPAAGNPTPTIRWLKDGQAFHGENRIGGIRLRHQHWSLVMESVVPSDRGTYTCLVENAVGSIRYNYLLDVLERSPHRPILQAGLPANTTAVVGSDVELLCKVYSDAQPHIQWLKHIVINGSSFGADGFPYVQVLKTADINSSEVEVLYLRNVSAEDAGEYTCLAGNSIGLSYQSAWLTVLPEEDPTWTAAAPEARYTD

T6: soluble FGFR1c receptor protein (human, UniProt P11362 141-376)
T6 sequence: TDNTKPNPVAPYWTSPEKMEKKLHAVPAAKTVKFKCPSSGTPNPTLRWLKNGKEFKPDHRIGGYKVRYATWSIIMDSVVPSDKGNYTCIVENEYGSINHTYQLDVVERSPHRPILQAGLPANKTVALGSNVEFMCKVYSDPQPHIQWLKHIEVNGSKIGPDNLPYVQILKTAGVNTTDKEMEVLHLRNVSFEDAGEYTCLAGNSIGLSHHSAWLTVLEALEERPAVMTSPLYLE

T7: 6His-Fc-FGFR4 (human, UniProt P22455 144-369)
T7 construct: not shown: 6His tag and Fc as named in '6His-Fc-FGFR'
T7 sequence: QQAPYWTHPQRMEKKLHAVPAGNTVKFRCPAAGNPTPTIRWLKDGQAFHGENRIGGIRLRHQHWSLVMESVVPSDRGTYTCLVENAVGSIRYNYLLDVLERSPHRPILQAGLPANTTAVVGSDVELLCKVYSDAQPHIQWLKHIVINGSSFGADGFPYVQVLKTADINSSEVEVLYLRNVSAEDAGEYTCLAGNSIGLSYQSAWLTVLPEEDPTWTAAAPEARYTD

T8: 6His-Fc-FGFR1c (human, UniProt P11362 141-376)
T8 construct: not shown: 6His tag and Fc as named in '6His-Fc-FGFR'
T8 sequence: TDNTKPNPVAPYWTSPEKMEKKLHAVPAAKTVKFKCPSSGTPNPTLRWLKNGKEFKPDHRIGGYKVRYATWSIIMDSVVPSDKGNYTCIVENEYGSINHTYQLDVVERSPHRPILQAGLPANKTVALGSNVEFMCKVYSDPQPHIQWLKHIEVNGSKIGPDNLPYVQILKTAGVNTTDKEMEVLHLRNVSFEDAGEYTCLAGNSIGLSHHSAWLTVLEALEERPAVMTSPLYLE


Key:
FGFR1 on tumour cells = FGFR1 on tumour cells (UniProt P11362 22-822); experiment: cell-based or functional assay
[1] = target: T1, recombinant human FGFR1c Fc fusion; experiment: solid phase ELISA on coated FGFR-Fc
Protocol: (§1) For the ELISA assay, the ability of each mAb to cross react with the […] FGF receptors was tested across a concentration curve in order to determine the relative binding across FGFR1-4. FGFR2IIIb was used as a negative control. Black 384-well Maxisorp plates were coated overnight with FGFR-Fc fusions in PBS to 1 ug/ml before washing and blocking with 75 ul/well Pierce Protein Free (PBS) Blocking Buffer for 1 hour at RT. Antibody dilutions were prepared freshly in 1% BSA- PBS+0.05% Tween20 and 25 ul of each antibody was added to wells in duplicate. Plates were incubated at RT for 2 hours, followed by addition of detection antibody at 50 ng/ml in 1% BSA PBS, 0.05% Tween20. ECL substrate (Pierce) was added and plates were read on the EnVision plate reader.

[2] = target: T9, recombinant human FGFR2c Fc fusion (human, UniProt P21802 148-377); experiment: solid phase ELISA on coated FGFR-Fc
T9 construct: also called FGFR2IIIc; not shown: Fc part of the FGFR-Fc fusion
Protocol: as §1

[3] = target: T2, recombinant human FGFR3c Fc fusion; experiment: solid phase ELISA on coated FGFR-Fc
Protocol: as §1

[4] = target: T3, recombinant human FGFR4 Fc fusion; experiment: solid phase ELISA on coated FGFR-Fc
Protocol: as §1

[5] = target: T4, soluble FGFR3c receptor protein; experiment: BLI Octet RED96, antibody on anti-hIgG Fc tip
Protocol: (§2) Briefly, the Pall ForteBio Octet RED96 Bio-Layer Interferometry system was used to determine the specificity of anti-FGFR antibodies for FGFR1c, FGFR2c, FGFR3c, and FGFR4. The antibodies and soluble receptor proteins were prepared in PBS at a concentration of 300 nM. First, the candidate antibodies were immobilized on the surface of anti-human IgG Fc biosensor tips for 120 seconds. After immobilization, the biosensors were dipped in PBS solution for 60 seconds (baseline step) to assess assay drift, and determine loading level of antibodies. The baseline step was followed by an association step of 300 seconds wherein the binding interaction between the immobilized antibodies and soluble receptors was measured. Following the association step, the biosensors were dipped into PBS buffer for 600 seconds to measure the dissociation of the bound receptor proteins from the immobilized antibodies. Each binding response was measured and reported real time on a sensorgram trace. For data analysis, a simple 1:1 binding model was used which measures the rate of complex formation of one immobilized antibody and one soluble receptor protein.

[6] = target: T5, soluble FGFR4 receptor protein; experiment: BLI Octet RED96, antibody on anti-hIgG Fc tip
Protocol: as §2

[7] = target: T6, soluble FGFR1c receptor protein; experiment: BLI Octet RED96, antibody on anti-hIgG Fc tip
Protocol: as §2

[8] = target: soluble FGFR2c receptor protein (human, UniProt P21802 148-377); experiment: BLI Octet RED96, antibody on anti-hIgG Fc tip
Protocol: as §2

6His-Fc-FGFR4 = target: T7, 6His-Fc-FGFR4; experiment: competition ELISA, blocks 6His-Fc-FGFR4 binding to coated FGF2
Protocol: (§3) ELISA plates were coated with 50 ug/ml Heparin Sulfate (HSPG) (Sigma Aldrich) and incubated overnight at room temperature. Plates were then washed extensively with PBS containing 0.05% v/v Tween20 (PBST). Plates were then blocked with 2.5% BSA in PBST for one hour and washed extensively as before. 40-60 μL of FGF1 or FGF2 was then added to each well at 40 μg/ml and allowed to bind at room temperature for 2 hours. Plates were then washed extensively with PBST as before. Stock solutions of each 6His-Fc-FGFR (FGFR1-4) were prepared at 500 ng/ml in 2% v/v BSA-PBST and each antibody was prepared as a 2×-dilution series in 2% v/v BSA-PBST. Antibodies dilution series and 6His-Fc-FGFR1-4 were diluted in a 1:1 fashion and immediately added to the relative wells of the plate and allowed to bind for 2 hours at room temperature. Plates were washed extensively as before with PBST and the remaining fraction of bound 6His-Fc-FGFR was detected using a polyclonal-anti-His-6-HRP conjugated antibody (Abcam) for one hour at room temperature. After extensive washing with PBST, 50 μl of Pierce Chemiluminescent substrate (Thermo Fisher Scientific, Rockford, USA) was added and plates were measured on an Envision plate reader (Perkin Elmer). Raw data was background corrected and plotted using Prism software. […]

6His-Fc-FGFR1c = target: T8, 6His-Fc-FGFR1c; experiment: competition ELISA, blocks 6His-Fc-FGFR1c binding to coated FGF2
Protocol: as §3

Sequence of FGFR1 on tumour cells (P11362 22-822): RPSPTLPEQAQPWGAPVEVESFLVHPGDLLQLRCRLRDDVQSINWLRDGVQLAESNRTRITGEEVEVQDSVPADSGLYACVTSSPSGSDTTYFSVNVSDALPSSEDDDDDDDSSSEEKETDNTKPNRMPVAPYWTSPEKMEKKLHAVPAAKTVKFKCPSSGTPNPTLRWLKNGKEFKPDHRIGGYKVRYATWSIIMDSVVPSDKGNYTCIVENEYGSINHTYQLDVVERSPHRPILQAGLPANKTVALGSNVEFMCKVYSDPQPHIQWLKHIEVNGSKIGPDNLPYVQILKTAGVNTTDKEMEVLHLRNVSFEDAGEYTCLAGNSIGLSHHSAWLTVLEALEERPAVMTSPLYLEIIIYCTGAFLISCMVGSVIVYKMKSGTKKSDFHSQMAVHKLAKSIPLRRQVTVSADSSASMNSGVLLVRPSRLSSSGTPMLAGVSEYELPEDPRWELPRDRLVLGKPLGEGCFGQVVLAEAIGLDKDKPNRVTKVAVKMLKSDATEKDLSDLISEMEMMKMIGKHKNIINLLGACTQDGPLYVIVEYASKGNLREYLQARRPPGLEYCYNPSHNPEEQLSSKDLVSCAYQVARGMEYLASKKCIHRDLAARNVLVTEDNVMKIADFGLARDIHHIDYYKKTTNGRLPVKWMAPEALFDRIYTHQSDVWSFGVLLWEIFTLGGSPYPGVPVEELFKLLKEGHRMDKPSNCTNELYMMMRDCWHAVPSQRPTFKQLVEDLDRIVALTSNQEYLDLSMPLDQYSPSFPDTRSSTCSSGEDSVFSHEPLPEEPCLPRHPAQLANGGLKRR
Sequence of soluble FGFR2c receptor protein (P21802 148-377): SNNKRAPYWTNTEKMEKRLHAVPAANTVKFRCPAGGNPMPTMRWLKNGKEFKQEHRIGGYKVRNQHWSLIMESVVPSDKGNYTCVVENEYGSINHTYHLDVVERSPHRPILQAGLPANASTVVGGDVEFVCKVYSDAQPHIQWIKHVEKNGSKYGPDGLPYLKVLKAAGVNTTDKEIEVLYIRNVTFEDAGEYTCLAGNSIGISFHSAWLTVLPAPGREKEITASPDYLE
T9 sequence (P21802 148-377): as above

IC50 of pERK inhibition (AlphaScreen SureFire) in NCI-H1581 cells (FGFR1 on tumour cells)	EC50 [1]	EC50 [2]	EC50 [3]	EC50 [4]	Kd [5]	koff [5]	kon [5]	Kd [6]	koff [6]	kon [6]	Kd [7]	koff [7]	kon [7]	Kd [8]	koff [8]	kon [8]	IC50 (6His-Fc-FGFR4)	IC50 (6His-Fc-FGFR1c)	Binder
1.01 nM	0.00674 nM	0.0127 nM	0.0745 nM	38.2 nM	6.29 nM	0.000983 s⁻¹	151000 M⁻¹ s⁻¹	8.63 nM	0.0012 s⁻¹	125000 M⁻¹ s⁻¹	8.85 nM	0.000967 s⁻¹	91600 M⁻¹ s⁻¹	6.61 nM	0.00167 s⁻¹	252000 M⁻¹ s⁻¹	11.8 nM	2.03 nM	Ab19 (antibody, human IgG2, kappa, V domains shown, format in the assays not spelled out) VH: EVQLLESGGGVVQPGRSLRLSCAASGFTFSSYAMHWVRQAPGKGLEWVAVISYDGSNKYYADSVKGRFTISRDNSKNTLSLQMNSLRVEDTAIYYCVRGAGRGFTLGPDGFDIWGQGTMVTVSS VL: DIVMTQTPLSLSVTPGQPASISCKSSRSLLHSDGKTYVYWYVQKSGQPPQLLIYELSNRFSGVPDRFSGSGSRTDFTLKISRVEAEDVGVYYCMQYIEAPLTFGGGTKVEIKR
0.715 nM	0.013 nM	0.036 nM	0.171 nM	1.26 nM	11.6 nM	0.0015 s⁻¹	126000 M⁻¹ s⁻¹	6.69 nM	0.000887 s⁻¹	112000 M⁻¹ s⁻¹	12 nM	0.00116 s⁻¹	85100 M⁻¹ s⁻¹	4.62 nM	0.0011 s⁻¹	218000 M⁻¹ s⁻¹	7.38 nM	4.15 nM	Ab90 (antibody, human IgG2, kappa, V domains shown, format in the assays not spelled out) VH: EVQLLESGGGVVQPGRSLRLSCAASGFTFSSYAMHWVRQAPGKGLEWVAVISYDGSNKYYADSVKGRFTISRDNSKNTLSLQMNSLRVEDTAIYYCVRGAGRGYPYGPDGFDIWGQGTMVTVSS VL: DIVMTQTPLSLSVTPGQPASISCTSSRSLLHSDGKTYVYWYVQKSGQPPQLLIYELSNRFSGVPDRFSGSGSRTDFTLKISRVEAEDVGVYYCMQYVEVPLTFGGGTKVEIKR
1.91 nM	0.0242 nM	0.0325 nM	0.264 nM	13.1 nM	37.6 nM	0.00286 s⁻¹	75600 M⁻¹ s⁻¹	40.3 nM	0.00248 s⁻¹	60600 M⁻¹ s⁻¹	20 nM	0.00129 s⁻¹	57000 M⁻¹ s⁻¹	8.75 nM	0.00142 s⁻¹	147000 M⁻¹ s⁻¹	14 nM	4.16 nM	Ab92 (antibody, human IgG2, kappa, V domains shown, format in the assays not spelled out) VH: EVQLLESGGGVVQPGRSLRLSCAASGFTFSSYAMHWVRQAPGKGLEWVAVISYDGSNKYYADSVKGRFTISRDNSKNTLSLQMNSLRVEDTAIYYCVRGAGHGFPTGPDGFDIWGQGTMVTVSS VL: DIVMTQTPLSLSVTPGQPASISCRSSRSLLHSDGKTYVYWYVQKSGQPPQLLIYELSNRFSGVPDRFSGSGSRTDFTLKISRVEAEDVGVYYCMQYVEAPLTFGGGTKVEIKR
